Results reported in US10487348B2, “3-alpha-hydroxysteroid dehydrogenase mutants and process for the preparation of ursodeoxycholic acid” (Pharmazell GmbH, priority 2014, dated 2019).
Numbering of substitutions follows the chain as printed. In names and notes the source's numbering stands. Entries after “also recorded” stand apart in the source; their conditions may differ. Read-outs that look alike come from different tables or passages of the source.

B1: 3α-HSDH [R34N] (protein)
chain: MSIIVISGCATGIGAATRKVLEAAGHQIVGIDINDAEVIADLSTAEGRKQAIADVLAKCSKGMDGLVLCAGLGPQTKVLGNVVSVNYFGATELMDAFLPALKKGHQPAAVVISSVASAHLAFDKNPLALALEAGEEAKARAIVEHAGEQGGNLAYAGSKNALTVAVRKRAAAWGEAGVRLNTIAPGATETPLLQAGLQDPRYGESIAKFVPPMGRRAEPSEMASVIAFLMSPAASYVHGAQIVIDGGIDAVMRPTQFLEHHHHHH
B2: 3α-HSDH [R34N/L68A] (protein)
chain: B1 chain with L68A
B3: Crude extract (without His tag): non-tagged wild-type 3α-HSDH of Comamonas testosteroni (SEQ ID NO: 4) (protein, listed as Comamonas testosteroni)
chain: MSIIVISGCATGIGAATRKVLEAAGHQIVGIDIRDAEVIADLSTAEGRKQAIADVLAKCSKGMDGLVLCAGLGPQTKVLGNVVSVNYFGATELMDAFLPALKKGHQPAAVVISSVASAHLAFDKNPLALALEAGEEAKARAIVEHAGEQGGNLAYAGSKNALTVAVRKRAAAWGEAGVRLNTIAPGATETPLLQAGLQDPRYGESIAKFVPPMGRRAEPSEMASVIAFLMSPAASYVHGAQIVIDGGIDAVMRPTQF
B4: 3α-HSDH (WT): Comamonas testosteroni 3α-HSDH wild type, C-terminally extended by His-Tag LEHHHHHH (SEQ ID NO: 5) (protein)
chain: B1 chain with N34R
modifications: C-terminal His-tag LEHHHHHH

What was measured:
3α-HSDH; substrate DHCA [1] = type: biochemical, Comamonas testosteroni
3α-HSDH; substrate DHCA [2] = biological target: 3α-HSDH; substrate DHCA (Comamonas testosteroni, UniProt P80702, R34N); type: biochemical; conditions: versus wild type
3α-HSDH; substrate DHCA [3] = type: biochemical, Comamonas testosteroni; conditions: substrate DHCA; FIGS. 8A-8B; listed as dual mutant
3α-HSDH; substrate DHCA [4] = biological target: 3α-HSDH; substrate DHCA (Comamonas testosteroni, UniProt P80702, L68A/R34N); type: biochemical; conditions: purified enzyme
3α-HSDH; substrate DHCA [5] = biological target: T1, 3α-HSDH; substrate DHCA (Comamonas testosteroni, UniProt P80702); type: biochemical
T1 sequence (P80702 whole entry, looked up): B3 chain

[6] = Table 4, variants modified at position 34
[7] = Table 9, crude extract, dual mutant position 34 and 68
[8] = Table 7, variants modified at position 68

Row | Molecule | Specific activity (3α-HSDH; substrate DHCA [1]; [6]) [U/mg] | Volumetric activity (3α-HSDH; substrate DHCA [1]; [6]) [U/ml] | Specific activity (3α-HSDH; substrate DHCA [1]; [7]) [U/mg] | Volumetric activity (3α-HSDH; substrate DHCA [1]; [7]) [U/ml] | also measured
1 | B1 | 3.0 | 58.0 |  |  | activity improved (best mutant at position 34) (3α-HSDH; substrate DHCA [2]): approx. 3 fold
2 | B2 |  |  | 4.5 | 139.7 | activity compared with the wild type with His tag (courses of Michaelis-Menten kinetics) (3α-HSDH; substrate DHCA [3]): not being quite as active as the wild type at low substrate concentrations; also recorded: markedly higher activities than the wild-type enzyme at higher substrate concentrations; increase of the maximum activity over the wild type (3α-HSDH; substrate DHCA [4]): approx. 25%
3 | B3 |  |  |  |  | DHCA concentration at which maximum activity is reached (3α-HSDH; substrate DHCA [5]): approximately 1 mM
4 | B4 | 2.1 | 38.0 | 2.1 | 44.9 | Specific activity (3α-HSDH; substrate DHCA [1]; [8]): 2.1 U/mg; Volumetric activity (3α-HSDH; substrate DHCA [1]; [8]): 44.9 U/ml; substrate excess inhibition (3α-HSDH; substrate DHCA [5]): no longer demonstrates the pronounced substrate excess inhibition
